Target: T1, recombinant form of the extracellular domain of HER2 (amino acids 23-652) (UniProt P04626 23-652)
T1 construct: HER2 (neu/ErbB2), extracellular domain, amino acids 23-652; Bought recombinant protein; also called rHER2; neu; source: bought: e-bioscience, UK
Assay: SPR; competitive binding: fixed rHER2 concentration incubated 1 h with 5-, 50- and 500-fold excess of Herceptin, flowed over immobilised EPO
Details: both partners purified

binding result: binds
B1: Eosinophil Peroxidase (EPO) (enzyme)
chain 1: not shown
chain 2: VDCERTCAQLPPCFPIKIPPNDPRIKNQRDCIPFFRSAPSCPQNKNRVRNQINALTSFVDASMVYGSEVSLSLRLRNRTNYLGLLAINQRFQDNGRALLPFDNLHDDPCLLTNRSARIPCFLAGDTRSTETPKLAAMHTLFMREHNRLATELRRLNPRWNGDKLYNEARKIMGAMVQIITYRDFLPLVLGKARARRTLGHYRGYCSNVDPRVANVFTLAFRFGHTMLQPFMFRLDSQYRASAPNSHVPLSSAFFASWRIVYEGGIDPILRGLMATPAKLNRQDAMLVDELRDRLFRQVRRIGLDLAALNMQRSRDHGLPGYNAWRRFCGLSQPRNLAQLSRVLKNQDLARKFLNLYGTPDNIDIWIGAIAEPLLPGARVGPLLACLFENQFRRARDGDRFWWQKRGVFTKRQRKALSRISLSRIICDNTGITTVSRDIFRANIYPRGFVNCSRIPRLNLSAWRGT
notes: Eosinophil peroxidase, human, light chain of the mature enzyme; Eosinophil peroxidase, human, heavy chain of the mature enzyme; Native granule protein; source: purified from eosinophils of patients with marked eosinophilia (0.01 M HCl extraction, Sephadex G-50)
